As a reminder, the remaining activity is the signal under treatment as a percentage of the control signal.

This is an account of results in US9176064B2, “Bisubstrate fluorescent probes for protein kinase CK2” (University of Tartu, priority 2012, dated 2015).

Where a SMILES comes first, the peptide text is derived from it. [ ]: non-standard residue; d: D form. The star is where a group is joined. X1 = O=C(CCCCCCCn1cnc2c(Br)c(Br)c(Br)c(Br)c21)*

Targets include MPSK1 (Homo sapiens, UniProt O75716); CHK2 (Homo sapiens, UniProt O96017); ERK1 (Homo sapiens, UniProt P27361).
What all share (assay): Kinase panel residual activity
Holding throughout (format): biochemical
Holding throughout (settings): compound at 1 micromolar

A further series deals with T1, NUAK1 (Homo sapiens, UniProt O60285).
T1 sequence (O60285 1-661): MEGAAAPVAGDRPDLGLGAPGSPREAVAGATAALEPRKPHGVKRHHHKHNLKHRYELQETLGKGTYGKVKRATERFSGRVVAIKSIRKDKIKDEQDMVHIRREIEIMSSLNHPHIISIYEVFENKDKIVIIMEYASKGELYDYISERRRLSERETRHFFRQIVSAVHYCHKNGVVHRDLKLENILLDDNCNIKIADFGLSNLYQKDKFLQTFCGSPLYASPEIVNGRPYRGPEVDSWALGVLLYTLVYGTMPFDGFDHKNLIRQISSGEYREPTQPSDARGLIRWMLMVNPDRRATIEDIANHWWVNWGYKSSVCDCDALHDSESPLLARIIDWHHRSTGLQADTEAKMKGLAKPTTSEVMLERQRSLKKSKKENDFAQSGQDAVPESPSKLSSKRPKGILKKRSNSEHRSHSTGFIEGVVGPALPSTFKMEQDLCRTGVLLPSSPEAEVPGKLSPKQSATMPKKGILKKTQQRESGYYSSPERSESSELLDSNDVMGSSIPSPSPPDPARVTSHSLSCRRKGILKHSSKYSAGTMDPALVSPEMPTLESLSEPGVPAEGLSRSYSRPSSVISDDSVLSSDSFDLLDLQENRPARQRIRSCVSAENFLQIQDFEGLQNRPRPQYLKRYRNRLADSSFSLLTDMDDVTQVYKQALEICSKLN

For a further series, the target named is T2, TAO1 (Homo sapiens, UniProt Q7L7X3).
T2 sequence (Q7L7X3 1-1001): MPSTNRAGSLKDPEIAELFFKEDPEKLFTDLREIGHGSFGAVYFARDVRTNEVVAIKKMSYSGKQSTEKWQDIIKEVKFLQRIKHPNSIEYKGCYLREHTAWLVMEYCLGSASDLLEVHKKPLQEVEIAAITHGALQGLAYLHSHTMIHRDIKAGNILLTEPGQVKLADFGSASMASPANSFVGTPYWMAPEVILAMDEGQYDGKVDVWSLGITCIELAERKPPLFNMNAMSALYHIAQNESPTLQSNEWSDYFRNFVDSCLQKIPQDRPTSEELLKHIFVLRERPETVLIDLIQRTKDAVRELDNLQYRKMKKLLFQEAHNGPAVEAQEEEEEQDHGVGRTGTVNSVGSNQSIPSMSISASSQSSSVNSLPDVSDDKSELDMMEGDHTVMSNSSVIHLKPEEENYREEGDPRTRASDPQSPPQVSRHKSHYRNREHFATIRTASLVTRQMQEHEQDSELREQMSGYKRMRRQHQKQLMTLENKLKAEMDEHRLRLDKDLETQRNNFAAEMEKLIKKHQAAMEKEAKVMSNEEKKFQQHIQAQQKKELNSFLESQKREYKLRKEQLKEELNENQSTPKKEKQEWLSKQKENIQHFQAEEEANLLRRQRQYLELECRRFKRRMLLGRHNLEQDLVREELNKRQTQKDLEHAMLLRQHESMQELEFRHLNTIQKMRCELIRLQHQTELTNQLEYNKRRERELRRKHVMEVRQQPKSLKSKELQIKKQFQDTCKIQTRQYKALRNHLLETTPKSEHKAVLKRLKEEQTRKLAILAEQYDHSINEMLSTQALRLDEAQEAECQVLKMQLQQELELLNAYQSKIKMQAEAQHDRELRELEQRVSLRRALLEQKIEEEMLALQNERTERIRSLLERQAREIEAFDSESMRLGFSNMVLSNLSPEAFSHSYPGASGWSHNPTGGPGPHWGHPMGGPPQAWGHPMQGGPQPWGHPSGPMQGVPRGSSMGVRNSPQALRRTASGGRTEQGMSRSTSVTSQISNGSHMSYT

For a further series, the target named is T3, ZAP70 (Homo sapiens, UniProt P43403).
T3 sequence (P43403 1-619): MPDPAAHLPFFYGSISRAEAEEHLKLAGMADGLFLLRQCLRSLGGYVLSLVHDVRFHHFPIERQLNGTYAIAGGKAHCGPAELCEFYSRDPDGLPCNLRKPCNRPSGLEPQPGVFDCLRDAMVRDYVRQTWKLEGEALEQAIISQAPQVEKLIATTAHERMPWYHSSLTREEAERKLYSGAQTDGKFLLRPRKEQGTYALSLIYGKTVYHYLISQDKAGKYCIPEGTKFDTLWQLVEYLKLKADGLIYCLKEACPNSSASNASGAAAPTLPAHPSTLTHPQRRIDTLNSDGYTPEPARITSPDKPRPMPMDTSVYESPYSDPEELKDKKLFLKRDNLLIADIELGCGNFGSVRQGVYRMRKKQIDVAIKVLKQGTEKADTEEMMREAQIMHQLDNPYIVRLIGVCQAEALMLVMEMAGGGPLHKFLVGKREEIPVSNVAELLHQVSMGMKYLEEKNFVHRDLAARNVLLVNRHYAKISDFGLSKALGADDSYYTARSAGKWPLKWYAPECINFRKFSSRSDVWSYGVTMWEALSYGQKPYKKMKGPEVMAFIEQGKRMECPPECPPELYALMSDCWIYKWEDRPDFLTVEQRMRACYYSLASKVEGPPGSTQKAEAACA

Sequence of MPSK1 (O75716 whole entry, species assumed): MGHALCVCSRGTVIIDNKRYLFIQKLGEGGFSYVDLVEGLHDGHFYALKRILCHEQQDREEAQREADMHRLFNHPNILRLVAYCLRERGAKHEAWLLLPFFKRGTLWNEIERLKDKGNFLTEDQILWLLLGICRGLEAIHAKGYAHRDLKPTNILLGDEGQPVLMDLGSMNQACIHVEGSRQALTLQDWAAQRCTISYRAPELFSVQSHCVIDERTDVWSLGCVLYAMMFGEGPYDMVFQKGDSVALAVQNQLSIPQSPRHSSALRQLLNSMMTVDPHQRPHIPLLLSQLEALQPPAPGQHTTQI
Sequence of CHK2 (O96017 whole entry, species assumed): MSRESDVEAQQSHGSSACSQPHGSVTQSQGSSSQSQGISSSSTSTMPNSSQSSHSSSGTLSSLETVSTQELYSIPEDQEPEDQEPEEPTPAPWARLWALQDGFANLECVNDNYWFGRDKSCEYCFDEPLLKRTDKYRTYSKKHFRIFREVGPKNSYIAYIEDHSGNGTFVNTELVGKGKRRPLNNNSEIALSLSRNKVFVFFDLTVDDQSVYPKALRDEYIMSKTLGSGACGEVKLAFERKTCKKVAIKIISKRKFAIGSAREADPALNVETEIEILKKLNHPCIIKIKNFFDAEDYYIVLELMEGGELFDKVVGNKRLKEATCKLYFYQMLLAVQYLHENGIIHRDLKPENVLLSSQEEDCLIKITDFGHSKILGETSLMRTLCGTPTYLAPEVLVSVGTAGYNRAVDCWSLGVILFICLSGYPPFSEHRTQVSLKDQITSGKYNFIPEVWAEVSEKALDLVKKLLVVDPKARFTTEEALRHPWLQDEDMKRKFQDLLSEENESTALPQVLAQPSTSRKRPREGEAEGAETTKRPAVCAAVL
Sequence of ERK1 (P27361 whole entry, species assumed): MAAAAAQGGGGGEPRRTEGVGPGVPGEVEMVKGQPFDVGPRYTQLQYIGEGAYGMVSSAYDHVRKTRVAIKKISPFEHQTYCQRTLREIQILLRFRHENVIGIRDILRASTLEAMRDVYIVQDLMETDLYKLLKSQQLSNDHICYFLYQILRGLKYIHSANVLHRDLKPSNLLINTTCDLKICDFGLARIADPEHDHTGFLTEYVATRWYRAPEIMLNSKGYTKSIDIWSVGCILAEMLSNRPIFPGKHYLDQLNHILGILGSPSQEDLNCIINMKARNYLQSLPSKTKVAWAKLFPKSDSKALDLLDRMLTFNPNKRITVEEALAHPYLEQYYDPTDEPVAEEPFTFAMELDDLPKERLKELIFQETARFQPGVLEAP

For the molecule `NCCCC[C@H](NC(=O)[C@H](CC(=O)O)NC(=O)[C@H](CC(=O)O)NC(=O)[C@H](CC(=O)O)NC(=O)[C@H](CC(=O)O)NC(=O)[C@H](CC(=O)O)NC(=O)[C@@H](CC(=O)O)NC(=O)CCCCCCCn1cnc2c(Br)c(Br)c(Br)c(Br)c21)C(=O)O` [TBBI-OcA-(D-Asp)-(L-Asp)5-(L-Lys)-OH] (X1-[dD]DDDDDK-OH), the remaining activity at 1 µM in the series with NUAK1 turned out to be 58%; in the series with TAO1 it was 84%; with MPSK1 it was 96%; with ZAP70, 97%; with CHK2, 101%; with ERK1, 110%.
